The target in the series is T1, SBP-UNK ZnF1-6 (30-357) (human, UniProt Q9C0B0 30-357).
T1 sequence: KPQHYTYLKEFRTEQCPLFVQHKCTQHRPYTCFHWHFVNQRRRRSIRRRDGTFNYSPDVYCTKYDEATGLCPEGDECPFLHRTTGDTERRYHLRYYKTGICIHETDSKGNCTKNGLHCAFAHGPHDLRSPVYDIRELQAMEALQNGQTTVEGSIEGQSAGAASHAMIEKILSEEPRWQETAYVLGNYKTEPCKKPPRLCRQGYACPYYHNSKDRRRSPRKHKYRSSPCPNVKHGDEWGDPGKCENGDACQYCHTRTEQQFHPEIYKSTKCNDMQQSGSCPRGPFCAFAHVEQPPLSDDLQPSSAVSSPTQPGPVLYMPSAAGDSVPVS
The experiment in a line: fluorescence polarization. (In general: In fluorescence polarisation assays a small probe gives low polarisation when free and higher when bound to something large.)

B1: Chi58-67 gtpb4 FP RNA (ssRNA)
RNA: UUCAUCGCAUUAGACAUUUU
As usually defined, the Kd is the constant that tells how readily two partners part at equilibrium. Read a low Kd as higher affinity. B1 registered a Kd of 305 nM. This lies in the sub-micromolar range.

B2: Human GTPB4 FP RNA (ssRNA)
RNA: UACAUCGCAUUAGACAUUUU
Regarding B2, binding was characterised by a dissociation constant (Kd) of 263 nM.
